Assay: soluble fraction after stress (log2 fold change); higher = more stays soluble; pooled small domains, quantitative proteomics
Details: stress: 50 degC
Method in brief: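 The measure of aggregation propensity here is the base-two logarithm of the fold change in the soluble amount of each protein after stress. A higher value means more of that protein stays in solution. Stress was applied at 50°C to pooled libraries of small protein domains, read out by high-throughput quantitative proteomics.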

“HMVVVLPGETIKIDLIREGKDKQALGYLEDGTMIVVDNAKHLIGKNVEIEIDNVLPKEAGRVIFASLHGA” and “HMFDMLGDQIKKYRKEKKMSQEELAIPLNVVRQTVSKWENNLSVPDAELLIRLAEVLEISVAELLGT” are within 0.2 log units of each other in “soluble fraction (log2)” value: -0.109 for the first, -0.108 for the second.

Going from “HMVDPAEASKRAREYLDALPADDLKDVIRQFSATLAEGSVVLGYFQRSGLKSKVVKTALEQFVASTILSK” to “HMTSTEQEILIEHMVDRLPALRKKYGISQTELGEKIGLSRQTISAIERKTTPLTWTTMLAILMFFT”, the “soluble fraction (log2)” value falls from -0.167 to -1.7.

Going from “HMKGTVKFFNESKGFGFITEEGTNKEHFVHVSGLVDEIRENDEVEFDLQDGRKGLNAVNVRV” to “HMAVTNLTAKQISDTRWRVTWDSTLASPTYYVYRDGLLMMQTRQELYEFDAARGEQVQIDVLDDMAAAPAE”, the “soluble fraction (log2)” value falls from 0.231 to -0.741.

“HMQRYFINEPVPEDQRLVLPKDIAHHLVDVLRAEQNDELEVALNDQKVYLARLISLNPATVELQSDLG” and “HMSTPLPTGLPRGTIIEYTVQTDETLAIIAAKFNSTVDDIMTRNKITDPNTIYAGQILKVAINLVTP” are within 0.2 log units of each other in “soluble fraction (log2)” value: 0.266 for the first, 0.15 for the second.

Compared with “HMQISDAGALLDAVRRVLAENPAQVEQFRAGKEKVMGFLVGQVMRATGGKANPQMLNDVLREELS”, “HMPKRSKDEAELEFLEMLRDNQVDSTWSFGKIISQLGSTDPRYWMVDDDPLWKRQIFEKYLSNR” is lower in “soluble fraction (log2)” value: -0.0404 for the first, -0.292 for the second.

Going from “HMAQKQLYIAGTDYTKNSTSQLVLAYFPAKPSSIKIFFDGIYQNKDKWSLFGKTIIFGLPISSNAVEVHYE” to “HMPRPFPELTTREHDILALIARGWSNGRIADHLSLSGKTVSNYVSNILGKLQVTARAEAAERAREAGMGQ”, the “soluble fraction (log2)” value rises from -2.1 to -0.00905.

Going from “HMFNTWLGEIRSNTGANVRSGPDASAAIVDARPNETVVRVIGQSGNWLQIGDKQFVAQSLVAP” to “HMTLDEFTDLMNLFKTGHIEQKPVILYGYNYWTSLKSWFEFNNMKFPEMYIDGIINTVDEFKILYNKIF”, the “soluble fraction (log2)” value falls from -0.0505 to -0.982.

Going from “HMSNLENSLNESLSLLKSNKYNEALEILKKIEIEDSRVFFLLGTIYSVMKNINLGEEFLIKASK” to “HMGNEVMYRQDLSEQELLSFIKKYTGQDEVTHIVVGAPKQRDNTPSPVETKITPFVVQLKAQFPDVNVV”, the “soluble fraction (log2)” value rises from -1.48 to 0.115.

Compared with “HMEPIAFDNMHNRGIKGTNDWTQYEITLPFSAEAKKIFVAGLLVGKGKAWFDKFEVFLDGKNITDVAQI”, “HMQMKDRILRIMEHEGISPSKFAEEIGIQRSAMSHIISGRNNPSLDVLTKIMQRFTYVDTDWLLFGKGSMV” is lower in “soluble fraction (log2)” value: 0.124 for the first, -0.737 for the second.

Going from “HMEDVDLFTKAMAALPNRYRDILLLRYSHGYTVEEISDILSMKPENVKKTIQRARKKLGEILEAEG” to “HMVSDAWITGKVKSQLLADDVTPGMKIDVDTEDRIVSLKGTVPSLTARNEAIRIASHTKGVRTVDADELIV”, the “soluble fraction (log2)” value rises from -0.654 to 0.118.

“HMIEIKNLSFSYGKKKQSVFNDFSLTLDKGSVYGLLGKNGTGKSTLLYLMTGLLRPQAGQVLYKGVDVS” and “HMGTMKGFVDGSSVHLRSGPSLSESIRAKVVKGQTLYITERRGDWYRATVHGGGEGWIHTSLVKLAG” are within 0.2 log units of each other in “soluble fraction (log2)” value: 0.0827 for the first, 0.178 for the second.

Going from “HMQEDSNISFVKIHVDADSGMAHKKLSKLSLPTGFLIVVIIRGEENIIPNGETEVLPGDLLVAAAREFEN” to “HMSVDIWTGAQTGNIEAVKQHLADGVDVNSKSDIGRTALDVAIAFKQPLITDLLRKHGGKTRDELKAAE”, the “soluble fraction (log2)” value rises from -0.405 to 0.545.

“HMNTGIPHQEVIKKLYSFAEGGDWKGLKEELNRIKEYTLFYNSVKELADSFEINRLIEKLKTYIF” and “HMNSSTVDLAKEFLIDLLSSVEKMPASEVQEEAKNAGYSVASIRRAKDNLNIKPFKDGSAWYWKLPSIFK” are within 0.2 log units of each other in “soluble fraction (log2)” value: 0.0146 for the first, -0.114 for the second.

First: HMSDRESYGRYRNVSLTLSEYESLKNEYPLYADKYIERLSEYMETAGKHYNNHYATILSWLSKDIK
Second: HMPTITIQRGIILSSTTKGFIDELSHSQIKNAIVERLGEHHVMIHESQLDAVIKYAQKKEAVINIYL
The “soluble fraction (log2)” value of the first is lower: -0.487 for the first, -0.0325 for the second.

Compared with “HMPAPKPSGALSLKDEPLYAASDSKRRSGTVSGTYYRWDGENVNGRMRITNKQENIGKAGQVTGWITAH”, “HMTNKKIILEIFQNSDKPLIVEEISKKMFEKTGKKMILSTIYRNLKNMEDVGILKKIYNEDGSYMYIF” is lower in “soluble fraction (log2)” value: 0.087 for the first, -0.953 for the second.

First: HMTQTDINQIETLVHEGNKLAAVKLLMDTAHIGLKEAKDIIDNFFLGKQTDLQAAVAQVQTR
Second: HMNFTEAEQRFHFLEDQRQRGVLSLEQYRAELAQLRVTDAWGRLWMLQEQTGQWFVFHEGQWRPSQ
The “soluble fraction (log2)” value of the first is higher: 0.123 for the first, -0.124 for the second.

First: HMEPEVSNTYEKVLGMHHFSSTRSHQLHDLVRQANALELSLGEIESIAQSAKDGAQVISDIKHWMEPNRQ
Second: HMEFTVFMNSAGGSKLQVVKTVKELTGLGLKEAKAIVDGSPGPVKEGLSKADAEAMLAKLQEAGADVEL
The “soluble fraction (log2)” value of the first is higher: 0.266 for the first, -0.0948 for the second.

“HMHALSVKFSDEAAKTLPYDILSALRDVLALDPRPGYSRDENKIYRFEYADYNISFSVKDKTLTVLSAEK” and “HMQSHIVPDVKSQHIAQAKALLESKQMKAVVIDSNFVKGLPAGIVLDQTPIGGARVKENRTIYLTINTL” are within 0.2 log units of each other in “soluble fraction (log2)” value: -0.384 for the first, -0.557 for the second.

For “HMLEASVYTAEKSGDRLDAFLAEQAGITRSYAQKLIEGGQVTLGGVVPKKNYKLSAGEQVELILPEN”, the “soluble fraction (log2)” value was 0.0254.
